# Molecular target: human neutrophil elastase (human) (UniProt P08246)
# Experiment: cell-based or functional assay
# Settings: scale: moles of AAT polypeptide per mole of protease
# UniProt P08246, sequence (P08246 30-247 limits assumed): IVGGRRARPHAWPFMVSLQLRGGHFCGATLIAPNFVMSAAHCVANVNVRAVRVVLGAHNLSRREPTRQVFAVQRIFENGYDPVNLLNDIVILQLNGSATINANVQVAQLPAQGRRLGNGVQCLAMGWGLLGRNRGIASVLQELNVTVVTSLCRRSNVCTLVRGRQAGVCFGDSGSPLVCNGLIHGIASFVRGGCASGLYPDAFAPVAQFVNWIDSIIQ
row,SI against HNE (n = 3),Substance
1,1.09,"Breach graft (wtAAT carrying S276K, T278E, T323E, D325N, K327E) (from UniProt P01009 41-418)"
2,1.35,"Helix-F graft (wtAAT carrying G99A, Y144W, Y171A) (from UniProt P01009 41-418)"
3,1.11,"F35 graft (wtAAT carrying L275F, I324V, M358I) (from UniProt P01009 41-418)"

# From patent publication US20250092119A1
